From patent US20250074997A1 (PERSONGEN BIOTHERAPEUTICS SUZHOU, published 2025)

Each binder was assayed against T1, UPAR-His recombinant protein (UniProt Q03405 23-303) (assay: phage ELISA, plate coated with UPAR-His, HRP-anti-M13).
T1 construct: range 23-303; Expressed in 293 cells, purified on Ni-NTA; Biotinylated in the uPA ELISA; also called UPAR-His antigen; biotinUPAR-His; not shown: C-terminal His tag
T1 sequence (Q03405 23-303 limits assumed): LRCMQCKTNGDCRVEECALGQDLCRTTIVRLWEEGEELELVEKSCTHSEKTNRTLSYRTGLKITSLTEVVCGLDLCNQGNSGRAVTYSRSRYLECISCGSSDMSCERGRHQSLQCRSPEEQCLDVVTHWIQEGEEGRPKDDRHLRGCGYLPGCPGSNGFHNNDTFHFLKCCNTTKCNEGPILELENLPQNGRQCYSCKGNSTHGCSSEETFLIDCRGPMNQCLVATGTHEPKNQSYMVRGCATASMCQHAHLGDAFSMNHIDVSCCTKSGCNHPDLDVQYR

| Binder | S/N ratio |
| --- | --- |
| phage mono clone 1-F10 (VHH, the phage coat fusion part is not described) VHH: QVQLVESGGGLVQPGGSLRLSCAASGSILSIRAVGWYRQAPGKQRELVALITSDGTTHYALSVKGRFTISRDNAKTTVYLQMNSLKPEDTAVYYCNREDYARRYWGQGTQVTVSS | > 5 |
| phage mono clone 1-H2 (VHH, the phage coat fusion part is not described) VHH: QVQLVESGGGLVQPGGSLRLSCAASGSTLDYYAIAWFRQAPGKGREGVSCISSSGGRTNYADSVKGRFTVSRDNVKNTVYLQMNSLKPEDTAVYNCAAGGDLSCYGTPTSIWQYDLWGQGTQVTVAS | > 5 |
| phage mono clone 3-E03 (VHH, the phage coat fusion part is not described) VHH: AVQLVDSGGGLVQAGGSLRLSCAASGIRLSSNAMAWYRQAPGKQRGLVALITSDGTTNYVDSVKGRFTISRDNAKNTVYLQMNSLKPEDTAVYYCKREPYLSTRGYWGQGTQVTVSS | > 5 |
| phage mono clone 1-F9 (VHH, the phage coat fusion part is not described; also called 1-F09) VHH: QSLLVESGGGLVQPGGSLRLSCAASGFSLDYYAIGWFRQAPGKEREEVSCISSGGGSTNYADSVKGRFTISRDNAKNTVYLQMNSLKPEDTAVYYCAAKRNFMLYLVQCPYEYDYWGQGTQVTVSS | > 5 |
| phage mono clone 3-E09 (VHH, the phage coat fusion part is not described) VHH: AVQLVDSGGGLVQPGGSLRLSCAASGFTFSSYAMGWARQVPGKGLEWVSIIYRDGNTYYTDSVKGRFTISRDNAKNTVYLQMNSLKPEDTAVYYCAPVETVAARRRDYWGQGTQVNVSS | > 5 |
| phage mono clone 3-E10 (VHH, the phage coat fusion part is not described) VHH: AVQLVDSGGGLVQPGGSLRLSCAASGFTFSSYAMGWARQVPGKGLEWVSIIYRDGNTYYTDSVKGRFTISRDNAKNTVYLQMNSLKPEDTAVYYCAPVETVAARRRDYWGQGTQVNVSS | > 5 |
| phage mono clone 3-E04 (VHH, the phage coat fusion part is not described) VHH: QLRLVESGGGLVQPGGSLRLSCAASGFTLDYYDIGWFRQAPGKEREGVSCIGRISGDTDYAESVKGRFTASRDNAKNTVYLQMNSLKPEDTAVYYCAAERRFFGGGCRRSVDNMDSWGKGTLVTVSS | > 5 |
| phage mono clone 1-H8 (VHH, the phage coat fusion part is not described) VHH: QRQLVESGGGLVQPGGSLRLSCAVSEFTLDYYAIGWFRQAPGKEREGVSCISSSGGSTVYADSVKGRFTISADNAKNTVYLQMNSLKPEDTAVYYCAAGSLLLFRLCVSRLYEYDYWGQGTQVTVSS | > 5 |
| phage mono clone 3-E06 (VHH, the phage coat fusion part is not described) VHH: EVQLVESGGGLVQAGGSLTLSCVASASGSILRLNAMGWYRQAPAKQRELVALITRDGSTNYPDSVKGRFTISRDNAKNTVYLQMSSLSPEDTAVYYCYVQNHYSNYWGQGTQVTVSS | > 5 |
| phage mono clone 3-H02 (VHH, the phage coat fusion part is not described) VHH: QLTLVESGGGLVQPGGSLRLSCAASEFTLDYYAIGWFRQAPGKEREGVSCISSSDGSTYYADSVKGRFTISRDNAKNTVYLQMNSLKPEDTAVYYCAIGGLLLLRLWERGNYEFDYWGQGTQVTVSS | > 5 |
| phage mono clone 1-F1 (VHH, the phage coat fusion part is not described) VHH: EVQLAESGGGLVQPGGSLRLSCAASGFTFSSYTMSWVRQAPGKGLEWVSAIDSDGGVTSYADSVKGRFTISRDNAKNTLYLQMNSLKPEDTAVYYCANGGYCSGYGCYPRLLSQGTLVTVSS | > 5 |
| phage mono clone 1-G1 (VHH, the phage coat fusion part is not described) VHH: QVQLVESGGGLVQPGGSLRLSCAASGNSLRRYAIGWFRQAPGKEREGVVCISTVGGSSYYVDSVKGRFTISEDNVKNTAYLQMNSLEPEDTAVYYCAAANRLYCPAYGSAGYDYWGQGTQVTVSS | > 5 |
| phage mono clone 3-G07 (VHH, the phage coat fusion part is not described) VHH: RLQLVESGGGLVQPGGSLRLSCAVSGKALDYYSIGWFRQAPRKQREGVSCISSSGGSTNYADSVKGRFTISRDNAKDTVYLQMNSLKPEDTADYYCAVVSTVLCGLGIYEYDYWGQGTLVTVSS | > 5 |
| phage mono clone 1-B4 (VHH, the phage coat fusion part is not described) VHH: QVQLVESGGGLVQPGGSLRLSCAASGFTLDYYAIGWFRQAPGKEREGVSCISSTGGSTNYADSVKGRFTISRDNAKNTVYLQMNSLKPEDTAVYYCAADTHYLTVCYDRLGFDYWGQGTQVTVSS | > 5 |
| phage mono clone 1-G2 (VHH, the phage coat fusion part is not described) VHH: QSQLAESGGGLVQPGGSLRLSCVASRFSLDAYAIAWFRQAPGKEREGVSCISSIGGRTNYADPVKGRFTISRDNAKNTAYLEMNSLQPEDTAVYYCAAVQRLFGPCLLSGGMDYWGKGTPVTVSS | > 5 |

These binders were tested against T1, UPAR-His recombinant protein (assay: SPR (BiaCore T200), UPAR recombinant protein immobilised on CM5 chip, antibody as mobile phase).

| Binder | Kd [nM] | koff [s⁻¹] | kon [M⁻¹ s⁻¹] |
| --- | --- | --- | --- |
| pcDNA3.4-SDAB20-7-26-2-1-F9-hFC (Fc fusion, also called 1-F09; not shown: human IgG1 Fc from vector pcDNA3.4-hIgG1-Fc2) QSLLVESGGGLVQPGGSLRLSCAASGFSLDYYAIGWFRQAPGKEREEVSCISSGGGSTNYADSVKGRFTISRDNAKNTVYLQMNSLKPEDTAVYYCAAKRNFMLYLVQCPYEYDYWGQGTQVTVSS | 1.49 | 0.000101 | 67600 |
| pcDNA3.4-SDAB20-7-26-2-3-E04-hFC (Fc fusion, Llama VHH fused in tandem with human IgG1 Fc, expressed in 293 cells, purified on protein A; not shown: human IgG1 Fc from vector pcDNA3.4-hIgG1-Fc2) QLRLVESGGGLVQPGGSLRLSCAASGFTLDYYDIGWFRQAPGKEREGVSCIGRISGDTDYAESVKGRFTASRDNAKNTVYLQMNSLKPEDTAVYYCAAERRFFGGGCRRSVDNMDSWGKGTLVTVSS | 22.3 | 0.00139 | 62700 |
| pcDNA3.4-SDAB20-7-26-2-3-H02-hFC (Fc fusion, Llama VHH fused in tandem with human IgG1 Fc, expressed in 293 cells, purified on protein A; not shown: human IgG1 Fc from vector pcDNA3.4-hIgG1-Fc2) QLTLVESGGGLVQPGGSLRLSCAASEFTLDYYAIGWFRQAPGKEREGVSCISSSDGSTYYADSVKGRFTISRDNAKNTVYLQMNSLKPEDTAVYYCAIGGLLLLRLWERGNYEFDYWGQGTQVTVSS | 1.31 | 0.000173 | 132000 |
